In experiment [1] the target is CCL11 (human) (UniProt P51671).
The target of experiment [2] is CCL22 (human) (UniProt O00626).
Experiment [3] addresses CCL24 (human) (UniProt O00175).
Experiment [4] concerns the target CCL5 (wild type) (human) (UniProt P13501).
For experiment [5], the target named is Evasin-4–Fc (Rhipicephalus sanguineus). The experiment can be described thus: SPR.
Experiment [6] addresses Fc–Evasin-4 (Rhipicephalus sanguineus). The experiment can be described thus: SPR.

CCL26, sequence (Q9Y258 24-94): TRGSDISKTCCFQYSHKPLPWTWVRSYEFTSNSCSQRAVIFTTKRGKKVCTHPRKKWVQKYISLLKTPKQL
CCL3, sequence (P10147 24-92): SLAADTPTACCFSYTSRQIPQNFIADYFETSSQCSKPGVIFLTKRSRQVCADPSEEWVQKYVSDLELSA
CCL24 (human), sequence (O00175 27-119): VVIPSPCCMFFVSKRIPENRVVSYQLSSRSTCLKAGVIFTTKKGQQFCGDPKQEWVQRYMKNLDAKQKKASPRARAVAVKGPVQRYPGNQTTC
CCL7, sequence (P80098 24-99): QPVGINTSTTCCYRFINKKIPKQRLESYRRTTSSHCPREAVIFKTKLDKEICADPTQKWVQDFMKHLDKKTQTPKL
CCL11 (human), sequence (P51671 24-97): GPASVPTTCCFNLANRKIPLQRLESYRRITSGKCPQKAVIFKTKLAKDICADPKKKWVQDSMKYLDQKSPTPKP
CCL11, sequence (P51671 24-97): as above
CCL8, sequence (P80075 24-99): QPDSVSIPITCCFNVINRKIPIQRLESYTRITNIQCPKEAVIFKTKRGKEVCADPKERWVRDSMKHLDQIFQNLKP
CCL22 (human), sequence (O00626 25-93): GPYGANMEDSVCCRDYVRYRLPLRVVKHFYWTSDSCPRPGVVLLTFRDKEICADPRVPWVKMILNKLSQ
CCL5 (wild type) (human), sequence (P13501 24-91): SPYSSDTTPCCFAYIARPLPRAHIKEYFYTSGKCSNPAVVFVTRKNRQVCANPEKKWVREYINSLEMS

Take Evasin-4–Fc (Fc fusion): the IC50, inhibition of chemotaxis of L1.2 CCR3 cells to CCL11 (EC80 1 nM) in experiment [1] is 1540 nM. Moreover, the IC50, inhibition of chemotaxis of L1.2 CCR4 cells to CCL22 (EC80 1 nM) in experiment [2] amounted to 38 nM. Besides, the IC50, inhibition of chemotaxis of L1.2 CCR3 cells to CCL24 (EC80 10 nM) in experiment [3] was 642 nM. In experiment [4], the IC50, inhibition of chemotaxis of L1.2 CCR5 cells to CCL5 (EC80 1 nM) was determined as 9.6 nM.

For “CCL26 (from UniProt Q9Y258 24-94) (ligand)”, the Kd was found to be 15.6 nM in experiment [5] and 17.3 nM in experiment [6].

Turning to “CCL5 E26A (from UniProt P13501 24-91) (ligand)”, the results for the Kd in experiment [5] and in experiment [6] were 1.72 nM and 0.02 nM, respectively.

Fc–Evasin-4 (Fc fusion) displayed an IC50, inhibition of chemotaxis of L1.2 CCR3 cells to CCL11 (EC80 1 nM) in experiment [1] of 88 nM. For the same substance, in experiment [3], the IC50, inhibition of chemotaxis of L1.2 CCR3 cells to CCL24 (EC80 10 nM) was determined as 113 nM.

Take “CCL8 (from UniProt P80075 24-99) (ligand)”: the dissociation constant Kd was determined as 0.015 nM in experiment [5] and 0.088 nM in experiment [6].

As for “CCL3 (from UniProt P10147 24-92) (ligand)”, the dissociation constant (Kd) in experiment [5] was determined as 6.79 nM; in experiment [6] it was 0.277 nM.

With “CCL11 (from UniProt P51671 24-97) (ligand)”, the dissociation constant Kd is 3.6 nM in experiment [5] and 0.099 nM in experiment [6].

“CCL7 (from UniProt P80098 24-99) (ligand)”: the dissociation constant Kd is 0.053 nM in experiment [5] and 0.134 nM in experiment [6].

The values are drawn from article PMC4240464.
